Laboratory results from IntAct's records for PubMed 31515488.

B1: Actin filament-associated protein 1-like 1 (Homo sapiens), Q8TED9 (parent)
chain: MDRGQVLEQLLPELTGLLSLLDHEYLSDTTLEKKMAVASILQSLQPLPAKEVSYLYVNTADLHSGPSFVESLFEEFDCDLSDLRDMPEDDGEPSKGASPELAKSPRLRNAADLPPPLPNKPPPEDYYEEALPLGPGKSPEYISSHNGCSPSHSIVDGYYEDADSSYPATRVNGELKSSYNDSDAMSSSYESYDEEEEEGKSPQPRHQWPSEEASMHLVRECRICAFLLRKKRFGQWAKQLTVIREDQLLCYKSSKDRQPHLRLALDTCSIIYVPKDSRHKRHELRFTQGATEVLVLALQSREQAEEWLKVIREVSKPVGGAEGVEVPRSPVLLCKLDLDKRLSQEKQTSDSDSVGVGDNCSTLGRRETCDHGKGKKSSLAELKGSMSRAAGRKITRIIGFSKKKTLADDLQTSSTEEEVPCCGYLNVLVNQGWKERWCRLKCNTLYFHKDHMDLRTHVNAIALQGCEVAPGFGPRHPFAFRILRNRQEVAILEASCSEDMGRWLGLLLVEMGSRVTPEALHYDYVDVETLTSIVSAGRNSFLYARSCQNQWPEPRVYDDVPYEKMQDEEPERPTGAQVKRHASSCSEKSHRVDPQVKVKRHASSANQYKYGKNRAEEDARRYLVEKEKLEKEKETIRTELIALRQEKRELKEAIRSSPGAKLKALEEAVATLEAQCRAKEERRIDLELKLVAVKERLQQSLAGGPALGLSVSSKPKSGETANKPQNSVPEQPLPVNCVSELRKRSPSIVASNQGRVLQKAKEWEMKKT
partner: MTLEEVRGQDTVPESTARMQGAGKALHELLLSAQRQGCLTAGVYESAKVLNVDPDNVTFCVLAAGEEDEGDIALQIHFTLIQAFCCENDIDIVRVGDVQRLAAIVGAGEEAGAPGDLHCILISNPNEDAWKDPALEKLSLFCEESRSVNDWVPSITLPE
B2: Proto-oncogene serine/threonine-protein kinase mos (Homo sapiens), P00540 (parent)
chain: MPSPLALRPYLRSEFSPSVDARPCSSPSELPAKLLLGATLPRAPRLPRRLAWCSIDWEQVCLLQRLGAGGFGSVYKATYRGVPVAIKQVNKCTKNRLASRRSFWAELNVARLRHDNIVRVVAASTRTPAGSNSLGTIIMEFGGNVTLHQVIYGAAGHPEGDAGEPHCRTGGQLSLGKCLKYSLDVVNGLLFLHSQSIVHLDLKPANILISEQDVCKISDFGCSEKLEDLLCFQTPSYPLGGTYTHRAPELLKGEGVTPKADIYSFAITLWQMTTKQAPYSGERQHILYAVVAYDLRPSLSAAVFEDSLPGQRLGDVIQRCWRPSAAQRPSARLLLVDLTSLKAELG
partner: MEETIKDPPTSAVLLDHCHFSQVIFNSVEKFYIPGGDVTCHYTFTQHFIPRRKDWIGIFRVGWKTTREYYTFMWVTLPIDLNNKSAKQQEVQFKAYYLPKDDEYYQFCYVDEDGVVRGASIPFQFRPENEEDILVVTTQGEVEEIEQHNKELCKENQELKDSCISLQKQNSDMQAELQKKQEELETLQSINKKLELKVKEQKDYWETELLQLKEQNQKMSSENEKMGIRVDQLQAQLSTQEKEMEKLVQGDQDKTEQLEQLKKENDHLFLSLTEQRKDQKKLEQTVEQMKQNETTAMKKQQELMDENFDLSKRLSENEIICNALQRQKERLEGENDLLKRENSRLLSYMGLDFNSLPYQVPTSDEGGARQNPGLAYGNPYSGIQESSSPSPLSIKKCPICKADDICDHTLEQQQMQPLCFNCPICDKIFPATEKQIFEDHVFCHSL
B3: TBC1 domain family member 22B (Homo sapiens), Q9NU19 (parent)
chain: MAAENSKQFWKRSAKLPGSIQPVYGAQHPPLDPRLTKNFIKERSKVNTVPLKNKKASSFHEFARNTSDAWDIGDDEEEDFSSPSFQTLNSKVALATAAQVLENHSKLRVKPERSQSTTSDVPANYKVIKSSSDAQLSRNSSDTCLRNPLHKQQSLPLRPIIPLVARISDQNASGAPPMTVREKTRLEKFRQLLSSQNTDLDELRKCSWPGVPREVRPITWRLLSGYLPANTERRKLTLQRKREEYFGFIEQYYDSRNEEHHQDTYRQIHIDIPRTNPLIPLFQQPLVQEIFERILFIWAIRHPASGYVQGINDLVTPFFVVFLSEYVEEDVENFDVTNLSQDMLRSIEADSFWCMSKLLDGIQDNYTFAQPGIQKKVKALEELVSRIDEQVHNHFRRYEVEYLQFAFRWMNNLLMRELPLRCTIRLWDTYQSEPEGFSHFHLYVCAAFLIKWRKEILDEEDFQGLLMLLQNLPTIHWGNEEIGLLLAEAYRLKYMFADAPNHYRR
B4: Ligand of Numb protein X 2 (Homo sapiens), Q8N448 (parent)
chain: MGTTSDEMVSVEQTSSSSLNPLCFECGQQHWTRENHLYNYQNEVDDDLVCHICLQPLLQPLDTPCGHTFCYKCLRNFLQEKDFCPLDRKRLHFKLCKKSSILVHKLLDKLLVLCPFSSVCKDVMQRCDLEAHLKNRCPGASHRRVALERRKTSRTQAEIENENGPTLLDPAGTLSPEADCLGTGAVPVERHLTSASLSTWSEEPGLDNPAFEESAGADTTQQPLSLPEGEITTIEIHRSNPYIQLGISIVGGNETPLINIVIQEVYRDGVIARDGRLLAGDQILQVNNYNISNVSHNYARAVLSQPCNTLHLTVLRERRFGNRAHNHSDSNSPREEIFQVALHKRDSGEQLGIKLVRRTDEPGVFILDLLEGGLAAQDGRLSSNDRVLAINGHDLKYGTPELAAQIIQASGERVNLTIARPGKPQPGNTIREAGNHSSSSQHHTPPPYYSRPSSHKDLTQCVTCQEKHITVKKEPHESLGMTVAGGRGSKSGELPIFVTSVPPHGCLARDGRIKRGDVLLNINGIDLTNLSHSEAVAMLKASAASPAVALKALEVQIVEEATQNAEEQPSTFSENEYDASWSPSWVMWLGLPSTLHSCHDIVLRRSYLGSWGFSIVGGYEENHTNQPFFIKTIVLGTPAYYDGRLKCGDMIVAVNGLSTVGMSHSALVPMLKEQRNKVTLTVICWPGSLV
partner: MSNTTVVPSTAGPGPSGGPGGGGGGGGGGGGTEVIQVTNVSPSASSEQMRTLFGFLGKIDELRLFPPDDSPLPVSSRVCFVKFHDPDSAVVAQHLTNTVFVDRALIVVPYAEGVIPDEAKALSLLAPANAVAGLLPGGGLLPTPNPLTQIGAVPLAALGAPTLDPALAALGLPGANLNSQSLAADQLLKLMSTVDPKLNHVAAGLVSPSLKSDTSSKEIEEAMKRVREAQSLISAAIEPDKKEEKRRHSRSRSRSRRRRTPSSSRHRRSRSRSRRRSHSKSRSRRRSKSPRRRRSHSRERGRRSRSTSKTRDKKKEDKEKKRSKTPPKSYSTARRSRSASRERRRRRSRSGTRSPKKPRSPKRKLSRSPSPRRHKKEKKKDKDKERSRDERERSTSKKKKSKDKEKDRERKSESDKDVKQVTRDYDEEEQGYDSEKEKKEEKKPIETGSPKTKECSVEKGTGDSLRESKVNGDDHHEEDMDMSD
B5: Ligand of Numb protein X 2 (Homo sapiens), Q8N448 (parent)
chain: B4 chain
partner: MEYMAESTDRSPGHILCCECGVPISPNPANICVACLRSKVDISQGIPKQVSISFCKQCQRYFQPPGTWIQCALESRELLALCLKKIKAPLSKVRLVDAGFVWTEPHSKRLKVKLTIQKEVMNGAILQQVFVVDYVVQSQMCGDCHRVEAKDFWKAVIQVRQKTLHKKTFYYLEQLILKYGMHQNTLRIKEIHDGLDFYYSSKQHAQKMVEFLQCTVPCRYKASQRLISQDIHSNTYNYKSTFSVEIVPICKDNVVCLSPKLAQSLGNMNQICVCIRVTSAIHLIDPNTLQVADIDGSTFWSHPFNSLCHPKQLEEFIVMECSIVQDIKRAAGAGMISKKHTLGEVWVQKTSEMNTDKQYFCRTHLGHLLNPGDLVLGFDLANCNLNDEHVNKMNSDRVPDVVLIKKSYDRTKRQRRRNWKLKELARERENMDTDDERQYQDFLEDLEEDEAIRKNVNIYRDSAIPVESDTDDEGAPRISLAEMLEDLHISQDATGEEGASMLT

Variants of: B1
Conditions: with ga45g_human GADD45G
With L406P the “effect of a mutation on the interaction” value was “with no effect”.
With S98N the “effect of a mutation on the interaction” value was “with no effect”.

Variants of: B2
Conditions: with caco2_human CALCOCO2, Q13137
For MPSPLALRPYLRSEFSPSVDARPCSSPSELPAKLLLGATLPRAPRLPRRLAWCSIDWEQVCLLQRLGAGGFGSVYKATYRGVPVAIKQVNKCTKNRLASRRSFWSELNVARLRHDNIVRVVAASTRTPAGSNSLGTIIMEFGGNVTLHQVIYGAAGHPEGDAGEPHCRTGGQLSLGKCLKYSLDVVNGLLFLHSQSIVHLDLKPANILISEQDVCKISDFGCSEKLEDLLCFQTPSYPLGGTYTHRAPELLKGEGVTPKADIYSFAITLWQMTTKQAPYSGERQHILYAVVAYDLRPSLSAAVFEDSLPGQRLGDVIQRCWRPSAAQRPSARLLLVDLTSLKAELG [A105S], the “effect of a mutation on the interaction” value was “with no effect”.
MPSPLALRPYLRSEFSPSVDARPCSSPSELPAKLLLGATLPRAPRLPRRLAWCSIDWEQVCLLQRLGAGGFGSVYKATYRGVPVAIKQVNKCTKNRLASRRSFWAELNVARLRHDNIVRVVATSTRTPAGSNSLGTIIMEFGGNVTLHQVIYGAAGHPEGDAGEPHCRTGGQLSLGKCLKYSLDVVNGLLFLHSQSIVHLDLKPANILISEQDVCKISDFGCSEKLEDLLCFQTPSYPLGGTYTHRAPELLKGEGVTPKADIYSFAITLWQMTTKQAPYSGERQHILYAVVAYDLRPSLSAAVFEDSLPGQRLGDVIQRCWRPSAAQRPSARLLLVDLTSLKAELG [A123T] was tested, and the “effect of a mutation on the interaction” value was “disrupting interaction strength”.

Variants of: B3
Conditions: with tri23_human TRIM23, P36406
Chain of tri23_human TRIM23, P36406 (P36406 whole entry): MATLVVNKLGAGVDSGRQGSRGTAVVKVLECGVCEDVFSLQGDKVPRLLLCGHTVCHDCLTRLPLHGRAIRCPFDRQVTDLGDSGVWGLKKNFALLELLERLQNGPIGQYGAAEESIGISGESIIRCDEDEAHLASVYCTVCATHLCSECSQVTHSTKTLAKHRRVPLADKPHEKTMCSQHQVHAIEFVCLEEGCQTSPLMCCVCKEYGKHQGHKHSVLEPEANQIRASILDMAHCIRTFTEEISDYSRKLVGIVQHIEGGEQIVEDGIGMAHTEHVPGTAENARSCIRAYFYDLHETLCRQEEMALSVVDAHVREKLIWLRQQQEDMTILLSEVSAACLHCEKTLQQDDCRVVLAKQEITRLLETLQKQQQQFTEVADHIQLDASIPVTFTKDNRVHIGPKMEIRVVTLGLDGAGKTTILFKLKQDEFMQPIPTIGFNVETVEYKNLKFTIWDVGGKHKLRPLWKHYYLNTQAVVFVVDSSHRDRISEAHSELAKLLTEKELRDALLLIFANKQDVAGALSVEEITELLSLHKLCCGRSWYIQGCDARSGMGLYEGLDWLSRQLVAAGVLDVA
MAAENSKQFWKRSAKLPGSIQPVYGAQHPPLDPRLTKNFIKERSKVNTVPLKNKKASSFHEFARNTSDAWDIGDDEEEDFSSPSFQTLNSKVALATAAQVLENHSKLRVKPERSQSTTSDVPANYKVIKSSSDAQLSRNSSDTCLRNPLHKQQSLPLRPIIPLVARISDQNASGAPAMTVREKTRLEKFRQLLSSQNTDLDELRKCSWPGVPREVRPITWRLLSGYLPANTERRKLTLQRKREEYFGFIEQYYDSRNEEHHQDTYRQIHIDIPRTNPLIPLFQQPLVQEIFERILFIWAIRHPASGYVQGINDLVTPFFVVFLSEYVEEDVENFDVTNLSQDMLRSIEADSFWCMSKLLDGIQDNYTFAQPGIQKKVKALEELVSRIDEQVHNHFRRYEVEYLQFAFRWMNNLLMRELPLRCTIRLWDTYQSEPEGFSHFHLYVCAAFLIKWRKEILDEEDFQGLLMLLQNLPTIHWGNEEIGLLLAEAYRLKYMFADAPNHYRR [P177A] was tested, and the “effect of a mutation on the interaction” value was “with no effect”.

Variants of: B3
Conditions: with ikzf3_human IKZF3, Q9UKT9
Chain of ikzf3_human IKZF3, Q9UKT9 (Q9UKT9 whole entry): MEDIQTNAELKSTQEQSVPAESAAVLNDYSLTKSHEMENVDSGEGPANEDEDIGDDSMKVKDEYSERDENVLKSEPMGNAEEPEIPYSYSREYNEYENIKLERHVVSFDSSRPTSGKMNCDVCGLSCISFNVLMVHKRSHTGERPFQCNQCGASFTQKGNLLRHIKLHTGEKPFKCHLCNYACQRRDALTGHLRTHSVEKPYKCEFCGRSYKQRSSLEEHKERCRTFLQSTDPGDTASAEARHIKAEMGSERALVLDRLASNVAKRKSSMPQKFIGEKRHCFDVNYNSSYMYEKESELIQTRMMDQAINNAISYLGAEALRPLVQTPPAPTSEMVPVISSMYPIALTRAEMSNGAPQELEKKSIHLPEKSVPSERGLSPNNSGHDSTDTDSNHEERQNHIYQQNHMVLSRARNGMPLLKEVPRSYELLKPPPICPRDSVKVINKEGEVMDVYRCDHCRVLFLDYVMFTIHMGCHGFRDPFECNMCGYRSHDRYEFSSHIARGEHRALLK
MAAENSKQFWKRSAKLPGSIQPVYGAQHPPLDPRLTKNFIKERSKVNTVPLKNKKASSFHEFARNTSDAWDIGDDEEEDFSSPSFQTLNSKVALATAAQVLENHSKLRVKPERSQSTTSDVPANYKVIKSSSDAQLSRNSSDTCLRNPLHKQQSLPLRPIIPLVARISDQNASGAPAMTVREKTRLEKFRQLLSSQNTDLDELRKCSWPGVPREVRPITWRLLSGYLPANTERRKLTLQRKREEYFGFIEQYYDSRNEEHHQDTYRQIHIDIPRTNPLIPLFQQPLVQEIFERILFIWAIRHPASGYVQGINDLVTPFFVVFLSEYVEEDVENFDVTNLSQDMLRSIEADSFWCMSKLLDGIQDNYTFAQPGIQKKVKALEELVSRIDEQVHNHFRRYEVEYLQFAFRWMNNLLMRELPLRCTIRLWDTYQSEPEGFSHFHLYVCAAFLIKWRKEILDEEDFQGLLMLLQNLPTIHWGNEEIGLLLAEAYRLKYMFADAPNHYRR [P177A] was tested, and the “effect of a mutation on the interaction” value was “with no effect”.

Variants of: B4
Conditions: with srs11_human SRSF11, Q05519
In the case of S198P, the “effect of a mutation on the interaction” value is reported as “with no effect”.
In the case of Y266C, the “effect of a mutation on the interaction” value is reported as “disrupting interaction strength”.
With S141A the “effect of a mutation on the interaction” value was “with no effect”.

Variants of: B5
Conditions: with nmd3_human NMD3, Q96D46
For V145I, the “effect of a mutation on the interaction” value was “with no effect”.
In the case of T183I, the “effect of a mutation on the interaction” value is reported as “with no effect”.
